How the values were obtained:
[1] = target: cynoLAMP1 presented on the surface of engineered cell lines (Macaca fascicularis, UniProt A0A2K5UUW0); assay: flow cytometry on cells
[2] = target: human LAMP-1 extracellular domain (Homo sapiens, UniProt P11279); assay: BLI
[3] = target: murine LAMP-1 extracellular domain (Mus musculus, UniProt P11438); assay: BLI
[4] = target: cynomolgus LAMP-1 extracellular domain (Macaca fascicularis, UniProt A0A2K5UUW0); assay: BLI

Chain of human LAMP-1 extracellular domain (P11279 29-382): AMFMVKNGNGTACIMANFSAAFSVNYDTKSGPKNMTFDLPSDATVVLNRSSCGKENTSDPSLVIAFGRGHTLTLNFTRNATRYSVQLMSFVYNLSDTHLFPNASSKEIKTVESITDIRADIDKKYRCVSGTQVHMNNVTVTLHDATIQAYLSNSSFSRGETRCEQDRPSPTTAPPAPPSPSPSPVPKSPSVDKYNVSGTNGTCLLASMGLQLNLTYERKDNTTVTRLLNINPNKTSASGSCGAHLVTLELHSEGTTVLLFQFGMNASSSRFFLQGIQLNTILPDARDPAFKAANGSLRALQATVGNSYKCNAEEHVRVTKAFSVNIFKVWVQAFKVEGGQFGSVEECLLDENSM
Chain of murine LAMP-1 extracellular domain (P11438 25-370): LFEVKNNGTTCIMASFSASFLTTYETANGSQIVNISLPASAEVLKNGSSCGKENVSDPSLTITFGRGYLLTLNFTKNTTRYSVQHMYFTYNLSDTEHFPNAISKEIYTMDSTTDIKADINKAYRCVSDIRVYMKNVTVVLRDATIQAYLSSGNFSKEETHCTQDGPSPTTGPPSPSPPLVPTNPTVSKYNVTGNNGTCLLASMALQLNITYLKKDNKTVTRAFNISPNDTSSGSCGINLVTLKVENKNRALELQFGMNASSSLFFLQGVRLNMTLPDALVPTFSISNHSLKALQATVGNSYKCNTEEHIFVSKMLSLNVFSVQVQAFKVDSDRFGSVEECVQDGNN

B1: mAb B (antibody, V domains shown)
VH: QVQLVQSGAEVKKPGSSVKVSCKASGYIFTNYNIHWVKKSPGQGLEWIGAIYPGNGDAPYSQKFQGKATLTADTSTSTTYMELSSLRSEDTAVYYCVRANWDVAFAYWGQGTLVTVSS
VL: DIQMTQSPSSLSASVGDRVTITCKASQDIDRYMAWYQDKPGKAPRLLIHDTSTLQSGVPSRFSGSGSGRDYTLTISNLEPEDFATYYCLQYDNLWTFGGGTKVEIK
Question: Does B1 bind [1]?
Answer: Result: no binding

Question: And the Kd [2]?
Answer: The Kd was 12 nM.

Question: Does B1 bind [3]?
Answer: Result: no binding (tested: 200 nM)

Question: Does B1 bind [4]?
Answer: Result: no binding (tested: 200 nM)

Reference: paper PMC9980635 (mAbs, 2023)
